Non-standard residues stand in square brackets, D forms with d. No end group written: not given here. 4Amb = NCc1ccc(C(=O)O)cc1
B1: 4-Aminomethylbenzoyl-[Ala26,30, Ile28,31]-PYY(25-36) (peptide)
peptide: [4Amb]RAYINAITRQRY-NH2
modifications: N-terminus assumed
SMILES: CC[C@H](C)[C@H](NC(=O)[C@H](C)NC(=O)[C@H](CC(N)=O)NC(=O)[C@@H](NC(=O)[C@H](Cc1ccc(O)cc1)NC(=O)[C@H](C)NC(=O)[C@H](CCCNC(=N)N)NC(=O)c1ccc(CN)cc1)[C@@H](C)CC)C(=O)N[C@H](C(=O)N[C@@H](CCCNC(=N)N)C(=O)N[C@@H](CCC(N)=O)C(=O)N[C@@H](CCCNC(=N)N)C(=O)N[C@@H](Cc1ccc(O)cc1)C(N)=O)[C@@H](C)O
notes: also called compound No. 32
B2: 4-Aminomethylbenzoyl-[Ala26, Ile28,31, Gly30]-PYY(25-36) (peptide)
peptide: [4Amb]RAYINGITRQRY-NH2
modifications: N-terminus assumed
SMILES: CC[C@H](C)[C@H](NC(=O)CNC(=O)[C@H](CC(N)=O)NC(=O)[C@@H](NC(=O)[C@H](Cc1ccc(O)cc1)NC(=O)[C@H](C)NC(=O)[C@H](CCCNC(=N)N)NC(=O)c1ccc(CN)cc1)[C@@H](C)CC)C(=O)N[C@H](C(=O)N[C@@H](CCCNC(=N)N)C(=O)N[C@@H](CCC(N)=O)C(=O)N[C@@H](CCCNC(=N)N)C(=O)N[C@@H](Cc1ccc(O)cc1)C(N)=O)[C@@H](C)O
notes: also called compound No. 45
B3: 4-Aminomethylbenzoyl-[Ala26, Ile28,31, Phe36]-PYY(25-36) (peptide)
peptide: [4Amb]RAYINLITRQRF-NH2
modifications: N-terminus assumed
SMILES: CC[C@H](C)[C@H](NC(=O)[C@H](Cc1ccc(O)cc1)NC(=O)[C@H](C)NC(=O)[C@H](CCCNC(=N)N)NC(=O)c1ccc(CN)cc1)C(=O)N[C@@H](CC(N)=O)C(=O)N[C@@H](CC(C)C)C(=O)N[C@H](C(=O)N[C@H](C(=O)N[C@@H](CCCNC(=N)N)C(=O)N[C@@H](CCC(N)=O)C(=O)N[C@@H](CCCNC(=N)N)C(=O)N[C@@H](Cc1ccccc1)C(N)=O)[C@@H](C)O)[C@@H](C)CC
notes: also called compound No. 6
B4: 4-Aminomethylbenzoyl-[Ala26, Ile31]-PYY(25-36) (peptide)
peptide: [4Amb]RAYLNLITRQRY-NH2
modifications: N-terminus assumed
SMILES: CC[C@H](C)[C@H](NC(=O)[C@H](CC(C)C)NC(=O)[C@H](CC(N)=O)NC(=O)[C@H](CC(C)C)NC(=O)[C@H](Cc1ccc(O)cc1)NC(=O)[C@H](C)NC(=O)[C@H](CCCNC(=N)N)NC(=O)c1ccc(CN)cc1)C(=O)N[C@H](C(=O)N[C@@H](CCCNC(=N)N)C(=O)N[C@@H](CCC(N)=O)C(=O)N[C@@H](CCCNC(=N)N)C(=O)N[C@@H](Cc1ccc(O)cc1)C(N)=O)[C@@H](C)O
notes: also called compound No. 20
B5: 4-Aminomethylbenzoyl-[Ala26, Ile28,31, Leu32]-PYY(25-36) (peptide)
peptide: [4Amb]RAYINLILRQRY-NH2
modifications: N-terminus assumed
SMILES: CC[C@H](C)[C@H](NC(=O)[C@H](Cc1ccc(O)cc1)NC(=O)[C@H](C)NC(=O)[C@H](CCCNC(=N)N)NC(=O)c1ccc(CN)cc1)C(=O)N[C@@H](CC(N)=O)C(=O)N[C@@H](CC(C)C)C(=O)N[C@H](C(=O)N[C@@H](CC(C)C)C(=O)N[C@@H](CCCNC(=N)N)C(=O)N[C@@H](CCC(N)=O)C(=O)N[C@@H](CCCNC(=N)N)C(=O)N[C@@H](Cc1ccc(O)cc1)C(N)=O)[C@@H](C)CC
notes: also called compound No. 62
B6: 4-Aminomethylbenzoyl-[Ala26, Ile28,31, Phe30]-PYY(25-36) (peptide)
peptide: [4Amb]RAYINFITRQRY-NH2
modifications: N-terminus assumed
SMILES: CC[C@H](C)[C@H](NC(=O)[C@H](Cc1ccc(O)cc1)NC(=O)[C@H](C)NC(=O)[C@H](CCCNC(=N)N)NC(=O)c1ccc(CN)cc1)C(=O)N[C@@H](CC(N)=O)C(=O)N[C@@H](Cc1ccccc1)C(=O)N[C@H](C(=O)N[C@H](C(=O)N[C@@H](CCCNC(=N)N)C(=O)N[C@@H](CCC(N)=O)C(=O)N[C@@H](CCCNC(=N)N)C(=O)N[C@@H](Cc1ccc(O)cc1)C(N)=O)[C@@H](C)O)[C@@H](C)CC
notes: also called compound No. 54
B7: 4-Aminomethylbenzoyl-[Ala26, Gln27, Ile28,31]-PYY(25-36) (peptide)
peptide: [4Amb]RAQINLITRQRY-NH2
modifications: N-terminus assumed
SMILES: CC[C@H](C)[C@H](NC(=O)[C@H](CCC(N)=O)NC(=O)[C@H](C)NC(=O)[C@H](CCCNC(=N)N)NC(=O)c1ccc(CN)cc1)C(=O)N[C@@H](CC(N)=O)C(=O)N[C@@H](CC(C)C)C(=O)N[C@H](C(=O)N[C@H](C(=O)N[C@@H](CCCNC(=N)N)C(=O)N[C@@H](CCC(N)=O)C(=O)N[C@@H](CCCNC(=N)N)C(=O)N[C@@H](Cc1ccc(O)cc1)C(N)=O)[C@@H](C)O)[C@@H](C)CC
notes: also called compound No. 30
B8: 4-Aminomethylbenzoyl-[Ala26, Ile28,31, Ser32]-PYY(25-36) (peptide)
peptide: [4Amb]RAYINLISRQRY-NH2
modifications: N-terminus assumed
SMILES: CC[C@H](C)[C@H](NC(=O)[C@H](Cc1ccc(O)cc1)NC(=O)[C@H](C)NC(=O)[C@H](CCCNC(=N)N)NC(=O)c1ccc(CN)cc1)C(=O)N[C@@H](CC(N)=O)C(=O)N[C@@H](CC(C)C)C(=O)N[C@H](C(=O)N[C@@H](CO)C(=O)N[C@@H](CCCNC(=N)N)C(=O)N[C@@H](CCC(N)=O)C(=O)N[C@@H](CCCNC(=N)N)C(=O)N[C@@H](Cc1ccc(O)cc1)C(N)=O)[C@@H](C)CC
notes: also called compound No. 60
B9: 4-Aminomethylbenzoyl-[Ala26, Ile28, Phe31]-PYY(25-36) (peptide)
peptide: [4Amb]RAYINLFTRQRY-NH2
modifications: N-terminus assumed
SMILES: CC[C@H](C)[C@H](NC(=O)[C@H](Cc1ccc(O)cc1)NC(=O)[C@H](C)NC(=O)[C@H](CCCNC(=N)N)NC(=O)c1ccc(CN)cc1)C(=O)N[C@@H](CC(N)=O)C(=O)N[C@@H](CC(C)C)C(=O)N[C@@H](Cc1ccccc1)C(=O)N[C@H](C(=O)N[C@@H](CCCNC(=N)N)C(=O)N[C@@H](CCC(N)=O)C(=O)N[C@@H](CCCNC(=N)N)C(=O)N[C@@H](Cc1ccc(O)cc1)C(N)=O)[C@@H](C)O
notes: also called compound No. 59
B10: 4-Aminomethylbenzoyl-[Ala26,31, Ile28]-PYY(25-36) (peptide)
peptide: [4Amb]RAYINLATRQRY-NH2
modifications: N-terminus assumed
SMILES: CC[C@H](C)[C@H](NC(=O)[C@H](Cc1ccc(O)cc1)NC(=O)[C@H](C)NC(=O)[C@H](CCCNC(=N)N)NC(=O)c1ccc(CN)cc1)C(=O)N[C@@H](CC(N)=O)C(=O)N[C@@H](CC(C)C)C(=O)N[C@@H](C)C(=O)N[C@H](C(=O)N[C@@H](CCCNC(=N)N)C(=O)N[C@@H](CCC(N)=O)C(=O)N[C@@H](CCCNC(=N)N)C(=O)N[C@@H](Cc1ccc(O)cc1)C(N)=O)[C@@H](C)O
notes: also called compound No. 33
B11: 4-Aminomethylbenzoyl-[Ala26, Arg27, Ile28,31]-PYY(25-36) (peptide)
peptide: [4Amb]RARINLITRQRY-NH2
modifications: N-terminus assumed
SMILES: CC[C@H](C)[C@H](NC(=O)[C@H](CCCNC(=N)N)NC(=O)[C@H](C)NC(=O)[C@H](CCCNC(=N)N)NC(=O)c1ccc(CN)cc1)C(=O)N[C@@H](CC(N)=O)C(=O)N[C@@H](CC(C)C)C(=O)N[C@H](C(=O)N[C@H](C(=O)N[C@@H](CCCNC(=N)N)C(=O)N[C@@H](CCC(N)=O)C(=O)N[C@@H](CCCNC(=N)N)C(=O)N[C@@H](Cc1ccc(O)cc1)C(N)=O)[C@@H](C)O)[C@@H](C)CC
notes: also called compound No. 29
B12: 4-Aminomethylbenzoyl-[Ala26, Trp27, Ile28,31]-PYY(25-36) (peptide)
peptide: [4Amb]RAWINLITRQRY-NH2
modifications: N-terminus assumed
SMILES: CC[C@H](C)[C@H](NC(=O)[C@H](Cc1c[nH]c2ccccc12)NC(=O)[C@H](C)NC(=O)[C@H](CCCNC(=N)N)NC(=O)c1ccc(CN)cc1)C(=O)N[C@@H](CC(N)=O)C(=O)N[C@@H](CC(C)C)C(=O)N[C@H](C(=O)N[C@H](C(=O)N[C@@H](CCCNC(=N)N)C(=O)N[C@@H](CCC(N)=O)C(=O)N[C@@H](CCCNC(=N)N)C(=O)N[C@@H](Cc1ccc(O)cc1)C(N)=O)[C@@H](C)O)[C@@H](C)CC
notes: also called compound No. 51
B13: 4-Aminomethylbenzoyl-[Ala26, Phe28, Ile31]-PYY(25-36) (peptide)
peptide: [4Amb]RAYFNLITRQRY-NH2
modifications: N-terminus assumed
SMILES: CC[C@H](C)[C@H](NC(=O)[C@H](CC(C)C)NC(=O)[C@H](CC(N)=O)NC(=O)[C@H](Cc1ccccc1)NC(=O)[C@H](Cc1ccc(O)cc1)NC(=O)[C@H](C)NC(=O)[C@H](CCCNC(=N)N)NC(=O)c1ccc(CN)cc1)C(=O)N[C@H](C(=O)N[C@@H](CCCNC(=N)N)C(=O)N[C@@H](CCC(N)=O)C(=O)N[C@@H](CCCNC(=N)N)C(=O)N[C@@H](Cc1ccc(O)cc1)C(N)=O)[C@@H](C)O
notes: also called compound No. 22
B14: 4-Aminomethylbenzoyl-[Ala26, Ile28,31, Tyr30]-PYY(25-36) (peptide)
peptide: [4Amb]RAYINYITRQRY-NH2
modifications: N-terminus assumed
SMILES: CC[C@H](C)[C@H](NC(=O)[C@H](Cc1ccc(O)cc1)NC(=O)[C@H](C)NC(=O)[C@H](CCCNC(=N)N)NC(=O)c1ccc(CN)cc1)C(=O)N[C@@H](CC(N)=O)C(=O)N[C@@H](Cc1ccc(O)cc1)C(=O)N[C@H](C(=O)N[C@H](C(=O)N[C@@H](CCCNC(=N)N)C(=O)N[C@@H](CCC(N)=O)C(=O)N[C@@H](CCCNC(=N)N)C(=O)N[C@@H](Cc1ccc(O)cc1)C(N)=O)[C@@H](C)O)[C@@H](C)CC
notes: also called compound No. 57

molecular target: T1, human Y2 receptor (human, UniProt P49146 1-381); assay: RBA: [125I]-PYY displacement, hY2R/CHO membranes
T1 construct: whole, on cells; used as membrane fraction of hY2R/CHO cells; also called human NPY2R; hY2R
T1 sequence (looked up): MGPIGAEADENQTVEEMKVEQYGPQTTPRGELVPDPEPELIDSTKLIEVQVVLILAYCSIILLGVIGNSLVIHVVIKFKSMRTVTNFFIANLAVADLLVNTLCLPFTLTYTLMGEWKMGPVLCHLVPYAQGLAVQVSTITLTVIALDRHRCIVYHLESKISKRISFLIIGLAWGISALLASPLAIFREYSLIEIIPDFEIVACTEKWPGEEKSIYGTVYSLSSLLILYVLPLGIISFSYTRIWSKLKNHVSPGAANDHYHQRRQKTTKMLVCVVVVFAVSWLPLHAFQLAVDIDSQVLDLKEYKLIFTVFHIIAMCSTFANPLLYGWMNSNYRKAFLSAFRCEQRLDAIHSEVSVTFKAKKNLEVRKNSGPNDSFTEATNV
In short: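 Bound radioligand was collected by filtration on PEI-treated GF/C filters, washed with Tris/MgCl₂/NaCl/CHAPS buffer pH 7.4, and counted by scintillation; IC₅₀ values were calculated.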

Compared with B1, B2 is higher in “IC50 Ratio (vs PYY(3-36))” value: 9.1 ratio for the first, 21 ratio for the second.

Compared with B3, B4 is lower in “IC50 Ratio (vs PYY(3-36))” value: 5.1 ratio for the first, 2.8 ratio for the second.

Going from B5 to B6, the “IC50 Ratio (vs PYY(3-36))” value falls from 18 ratio to 5.7 ratio.

Going from B7 to B8, the “IC50 Ratio (vs PYY(3-36))” value rises from 25 ratio to 180 ratio.

First: B9
Second: B10
The “IC50 Ratio (vs PYY(3-36))” value of the first is lower: 16 ratio for the first, 23 ratio for the second.

First: B11
Second: B12
The “IC50 Ratio (vs PYY(3-36))” value of the first is lower: 6.8 ratio for the first, 9.5 ratio for the second.

Going from B13 to B14, the “IC50 Ratio (vs PYY(3-36))” value falls from 4.1 ratio to 2.8 ratio.

molecular target: T1, human Y2 receptor; assay: cell-based or functional assay

First: B1
Second: B2
The “GBA EC50 Ratio (vs PYY(3-36)), [35S]GTPγS” value (from here on “GBA EC50 Ratio”) of the first is lower: 7.4 ratio for the first, 12 ratio for the second.

First: B3
Second: B4
The “GBA EC50 Ratio” value of the first is higher: 5.9 ratio for the first, 2 ratio for the second.

Compared with B5, B6 is lower in “GBA EC50 Ratio” value: 15 ratio for the first, 3.4 ratio for the second.

Compared with B7, B8 is higher in “GBA EC50 Ratio” value: 14 ratio for the first, 44 ratio for the second.

Compared with B9, B10 is higher in “GBA EC50 Ratio” value: 6.6 ratio for the first, 17 ratio for the second.

Compared with B11, B12 is higher in “GBA EC50 Ratio” value: 4.3 ratio for the first, 5.3 ratio for the second.

Going from B13 to B14, the “GBA EC50 Ratio” value falls from 3.5 ratio to 1.9 ratio.

Reference: patent US20120172293A1 (Takeda / Millennium, published 2012)
